# Measurements from patent US20230146072A1 (Pfizer, published 2023).
# T1: mouse GUCY2c (mouse, UniProt Q3UWA6 20-1072)
# T1 construct: whole, on cells; 300.19 cells over-expressing mouse GUCY2c, formalin-fixed paraffin-embedded cell pellets
# T1 sequence (looked up): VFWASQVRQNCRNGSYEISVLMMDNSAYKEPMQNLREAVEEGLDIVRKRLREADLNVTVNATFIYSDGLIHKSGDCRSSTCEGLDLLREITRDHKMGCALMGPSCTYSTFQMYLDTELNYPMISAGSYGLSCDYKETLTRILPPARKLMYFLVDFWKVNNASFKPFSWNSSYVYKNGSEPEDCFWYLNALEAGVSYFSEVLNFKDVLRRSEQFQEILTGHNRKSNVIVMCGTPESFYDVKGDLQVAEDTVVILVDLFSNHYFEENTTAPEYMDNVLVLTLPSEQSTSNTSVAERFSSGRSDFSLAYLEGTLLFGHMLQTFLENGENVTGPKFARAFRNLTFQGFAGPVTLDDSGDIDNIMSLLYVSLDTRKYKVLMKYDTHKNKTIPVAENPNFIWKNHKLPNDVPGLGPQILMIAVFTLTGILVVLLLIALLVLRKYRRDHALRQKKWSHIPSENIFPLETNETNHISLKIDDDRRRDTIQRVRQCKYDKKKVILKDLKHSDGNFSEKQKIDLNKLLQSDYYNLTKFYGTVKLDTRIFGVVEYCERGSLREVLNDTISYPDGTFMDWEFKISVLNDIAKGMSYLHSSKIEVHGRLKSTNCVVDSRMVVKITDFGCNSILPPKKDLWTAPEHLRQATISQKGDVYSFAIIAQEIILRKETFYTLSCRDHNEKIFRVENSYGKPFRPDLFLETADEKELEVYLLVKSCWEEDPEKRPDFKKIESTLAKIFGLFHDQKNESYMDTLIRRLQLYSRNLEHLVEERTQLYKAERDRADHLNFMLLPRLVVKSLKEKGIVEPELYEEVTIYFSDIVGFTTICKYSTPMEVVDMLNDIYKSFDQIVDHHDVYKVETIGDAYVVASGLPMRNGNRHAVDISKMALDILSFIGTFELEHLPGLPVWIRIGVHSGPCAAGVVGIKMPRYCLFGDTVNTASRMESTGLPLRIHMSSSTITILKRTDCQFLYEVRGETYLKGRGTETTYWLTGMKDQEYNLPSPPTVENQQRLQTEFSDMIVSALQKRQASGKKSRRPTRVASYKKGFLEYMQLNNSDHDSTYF
# Target: T1, mouse GUCY2c
# Assay: IHC on FFPE pellets of 300.19 cells over-expressing mouse GUCY2c
# Method: Empty holes were filled with paraffin and the array was allowed to warm at 40 ° C. in an incubator overnight to anneal the donor cores with the recipient block. Five micron sections of the cell microarray were cut, transferred to a water bath and placed on Superfrost Excell microscope slides (Fisher). Slides were allowed to dry overnight. After deparaffinization and rehydration of tissue sections, heat induced epitope retrieval was performed in the Retriever 2100 pressure cooker (Electron Microscopy Sciences) in Borg Decloaker buffer pH 9.5 (Biocare Medical) or pH 6.0 Citrate buffer (Thermo Scientific) followed by cooling to room temperature (RT). Endogenous peroxidase activity was inactivated with Peroxidazed 1 (Biocare Medical) for 10 m. Non-specific protein interactions were blocked for 10 m with Background Punisher (Biocare Medical). Each hybridoma was incubated without dilution for 1 h under both heat induced epitope retrieval conditions. Sections were rinsed in TBS and hybridoma binding was detected with Envision+ Mouse HRP (DAKO) for 30 m. Slides were rinsed in TBS and immunoreactivity was developed with Betazoid DAB Chromogen Kit (Biocare Medical) for 5 m, followed by rinses in distilled water. […] Slides were evaluated by a pathologist to assess immunoreactivity. […]
binder,measurement,value
"Anti-GUCY2c antibody Ab288 (antibody, mouse IgG1, kappa, V domains shown) VH: DVQLQESGPGLVKPSQSLSLTCTVTGYSITSDYAWNWIRQFPGNNLEWMGYISYSGSTRYNPSLKSRISITRDTSKNQFFLQLNSVTSEDTATYYCAREDGYVAMDYWGQGTSVTVSS VL: DIVLTQSPASLAVSLGQRATISCRASESVEYFGTSFMQWYQQRPGQPPKLLIYAASNVESGVPVRFSGSGSGTDFSLNIHPVEEDDIAMYFCQQSRKVPWTFGGGTNLEIKR",binding result,no binding (tested: 2 µg/ml and 10 µg/ml)
